# Measurements: publication PMC9481563, “Structural insights into the pSer/pThr dependent regulation of the SHP2 tyrosine phosphatase in insulin and CD28 signaling” (Nature Communications, 2022)
# Where no end group is shown, it is not given here. [ ]: non-standard residue; d: D form. pY = N[C@@H](Cc1ccc(OP(=O)(O)O)cc1)C(=O)O; pT = C[C@@H](OP(=O)(O)O)[C@H](N)C(=O)O; pS = N[C@@H](COP(=O)(O)O)C(=O)O
# B1: ppCD28, CD28 peptide dually phosphorylated (pY191 + pT195) (peptide)
# peptide: RSRLLHSD[pY]MNM[pT]PRR
# notes: human CD28 T-cell costimulatory receptor, cytoplasmic YMNMTP motif, 16 amino acids; also called pY191-pT195 peptide; source: synthetic peptide, bought: GeneScript Inc
# B2: p0CD28, CD28 peptide with phosphotyrosine only (pY191) (peptide)
# peptide: RSRLLHSD[pY]MNMTPRR
# notes: human CD28 T-cell costimulatory receptor, cytoplasmic YMNMTP motif, 16 amino acids; also called singly Tyr phosphorylated CD28 peptide; source: synthetic peptide, bought: GeneScript Inc
# B3: ppIRS1, IRS1 peptide dually phosphorylated (pY632 + pS636) (peptide)
# peptide: GRKGSGD[pY]MPM[pS]PKS
# notes: human IRS1, 2nd YxxMSP motif around Y632, 15 amino acids; also called pY632-pS636 peptide; dually phosphorylated model peptide; source: synthetic peptide, bought: GeneScript Inc
# B4: p0IRS1, IRS1 peptide with phosphotyrosine only (pY632) (peptide)
# peptide: GRKGSGD[pY]MPMSPKS
# notes: human IRS1, 2nd YxxMSP motif around Y632, 15 amino acids; also called singly phosphorylated model peptide; pTyr peptide; source: synthetic peptide, bought: GeneScript Inc
# Target: T1, PTPRε first catalytic domain, inactive C335S mutant (107-399), MBP-tagged (human, UniProt P23469 107-399, C335S)
# T1 construct: PTPRε receptor tyrosine phosphatase, first phosphatase domain, cloned from a HEK293T cDNA pool, UniProt P23469, residues 107-399; first cloned into pBH4 (N-terminal His6); also called receptor tyrosine phosphatase PTPRε; source: E. coli BL21 (DE3), purified (Ni-NTA, anion exchange)
# T1 sequence (P23469 107-399 C335S): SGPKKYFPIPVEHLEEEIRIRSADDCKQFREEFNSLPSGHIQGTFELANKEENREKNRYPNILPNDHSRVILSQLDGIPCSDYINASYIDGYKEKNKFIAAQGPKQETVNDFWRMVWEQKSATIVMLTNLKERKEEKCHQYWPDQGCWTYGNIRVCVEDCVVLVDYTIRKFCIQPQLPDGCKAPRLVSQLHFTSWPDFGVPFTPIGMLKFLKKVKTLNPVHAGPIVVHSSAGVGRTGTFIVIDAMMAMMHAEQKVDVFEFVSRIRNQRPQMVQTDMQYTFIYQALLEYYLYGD
# Test: fluorescence polarisation; competitive titration: labelled CF-ppIRS1 and protein both fixed (50-80% saturation), unlabelled competitor peptide varied; triplicates; Kd from cubic fit
# Conditions: both partners purified
row,binding result,Binder
1,binds,B1
2,binds,B2

# Target: T2, PIK3R1 (p85) N-terminal SH2 domain (321-433) (human, UniProt P27986 321-433)
# T2 construct: PIK3R1 regulatory subunit of PI3K (p85), nSH2 domain, cloned from a HEK293T cDNA pool, UniProt P27986, residues 321-433; also called nSH2; PI3KR1 nSH2; source: E. coli BL21 (DE3), purified (Ni-NTA, anion exchange)
# T2 sequence (P27986 321-433): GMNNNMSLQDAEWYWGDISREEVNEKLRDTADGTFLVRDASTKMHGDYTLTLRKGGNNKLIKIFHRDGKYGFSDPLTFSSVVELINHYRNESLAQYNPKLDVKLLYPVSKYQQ
# Test: as above
# Conditions: both partners purified
row,binding result,Binder
1,binds,B3
2,binds,B1
3,binds,B4
4,binds,B2

# Target: T3, PIK3R1 (p85) C-terminal SH2 domain (614-724) (human, UniProt P27986 614-724)
# T3 construct: PIK3R1 regulatory subunit of PI3K (p85), cSH2 domain, cloned from a HEK293T cDNA pool, UniProt P27986, residues 614-724; also called cSH2; PI3KR1 cSH2; source: E. coli BL21 (DE3), purified (Ni-NTA, anion exchange)
# T3 sequence (P27986 614-724): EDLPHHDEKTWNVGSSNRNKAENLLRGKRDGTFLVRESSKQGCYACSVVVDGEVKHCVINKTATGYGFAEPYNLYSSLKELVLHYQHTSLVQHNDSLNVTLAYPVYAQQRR
# Test: as above
# Conditions: both partners purified
row,binding result,Binder
1,binds,B3
2,binds,B1
3,binds,B4
4,binds,B2
